Read-outs that look alike come from different tables or passages of the source. Blank lines part the entries; values can stand above or below the binder they belong to. Bridge positions count the residues as written; N and C are the ends. * marks the point of attachment. Isovaleryl = CC(C)CC(=O)*
Tests used:
Test in all cases: cell-based or functional assay
[1] = molecular target: T1, human ferroportin (SLC40A1) fused in frame with GFP, stably expressed in HEK293 cells (human, UniProt Q9NP59 1-571)
T1 sequence (looked up): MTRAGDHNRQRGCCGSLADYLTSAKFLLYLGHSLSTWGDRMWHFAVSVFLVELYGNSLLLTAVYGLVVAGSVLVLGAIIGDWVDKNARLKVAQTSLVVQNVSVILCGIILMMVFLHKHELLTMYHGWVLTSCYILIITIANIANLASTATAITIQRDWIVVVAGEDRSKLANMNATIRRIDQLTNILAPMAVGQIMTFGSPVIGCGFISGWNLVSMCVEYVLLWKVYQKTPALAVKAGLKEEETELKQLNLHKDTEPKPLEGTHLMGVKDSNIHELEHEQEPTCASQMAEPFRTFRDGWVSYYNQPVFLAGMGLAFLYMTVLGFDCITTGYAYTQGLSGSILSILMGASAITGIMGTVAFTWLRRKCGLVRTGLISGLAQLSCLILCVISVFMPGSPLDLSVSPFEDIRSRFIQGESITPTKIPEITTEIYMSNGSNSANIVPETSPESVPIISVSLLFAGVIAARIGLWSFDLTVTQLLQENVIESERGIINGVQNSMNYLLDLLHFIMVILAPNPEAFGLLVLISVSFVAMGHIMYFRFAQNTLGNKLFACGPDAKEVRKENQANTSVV

[2] = molecular target: T1, human ferroportin (SLC40A1) fused in …; remark: listed apart in the source
[3] = molecular target: T1, human ferroportin (SLC40A1) fused in …; remark: listed apart in the source
[4] = molecular target: T1, human ferroportin (SLC40A1) fused in …; remark: listed apart in the source
[5] = molecular target: T1, human ferroportin (SLC40A1) fused in …; remark: listed apart in the source
[6] = molecular target: T2, human ferroportin (SLC40A1) fused in frame with GFP, stably expressed on HEK293 cells (human, UniProt Q9NP59 1-571)
T2 sequence (looked up): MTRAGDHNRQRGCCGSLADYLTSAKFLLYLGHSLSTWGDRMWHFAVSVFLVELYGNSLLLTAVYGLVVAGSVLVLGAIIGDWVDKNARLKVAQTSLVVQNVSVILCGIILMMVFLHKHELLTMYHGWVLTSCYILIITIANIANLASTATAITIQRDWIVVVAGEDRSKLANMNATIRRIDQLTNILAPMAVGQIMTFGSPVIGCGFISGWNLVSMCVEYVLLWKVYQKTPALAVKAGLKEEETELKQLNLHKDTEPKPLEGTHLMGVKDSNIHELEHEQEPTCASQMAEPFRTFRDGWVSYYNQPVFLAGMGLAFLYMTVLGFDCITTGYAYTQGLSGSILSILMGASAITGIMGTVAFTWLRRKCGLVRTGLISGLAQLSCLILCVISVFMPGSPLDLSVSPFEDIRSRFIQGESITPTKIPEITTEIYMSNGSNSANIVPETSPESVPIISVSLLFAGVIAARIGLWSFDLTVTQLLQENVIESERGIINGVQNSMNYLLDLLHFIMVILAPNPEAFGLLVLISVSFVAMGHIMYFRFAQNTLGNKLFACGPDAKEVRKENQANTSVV

[7] = molecular target: T2, human ferroportin (SLC40A1) fused in …; remark: listed apart in the source
[8] = molecular target: T1, human ferroportin (SLC40A1) fused in …; remark: listed apart in the source

B1: Compound 345 (peptide)
peptide: Isovaleryl-DTHFPCIKFK-NH2
modifications: also: homodimer via disulfide between Cys6 of each monomer
EC50 (nM) (n > 3) [1]: 8 nM
Log dilutions EC50 (nM) (n > 3) [2]: 8 nM

B2: Compound 326 (peptide)
peptide: Isovaleryl-DTHFPCIKF-NH2
modifications: also: homodimer via disulfide between Cys6 of each monomer
EC50 (nM) (n > 3) [1]: 3 nM
% Activity At 1 uM [3]: 100%
EC50 (nM) (n = 3) [3]: 3 nM
Log dilutions EC50 (nM) (n > 3) [2]: 6 nM

B3: Compound 2 (peptide)
peptide: Isovaleryl-DTHFPICIFGPRSKGWVC-NH2
modifications: disulfide 7-18 (inferred)
In Vitro Activity EC50 [4]: 5 nM
Log dilutions EC50 (nM) (n > 3) [5]: 4.1 nM

B5: Compound 3 (peptide)
peptide: Isovaleryl-DTHFPCIIFGPRSRGWVCK-NH2
modifications: disulfide 6-18 (inferred)
In Vitro Activity EC50 [4]: 15 nM
Log dilutions EC50 (nM) (n > 3) [5]: 15 nM

B6: Compound 352 (peptide)
peptide: Isovaleryl-DTHFPCIIFGPRSRGWVCK-NH2
modifications: disulfide 6-18 (inferred); not fully specified (residue 19); also: dimer through DIG linker on εN of Lys19 of each monomer
Log dilutions EC50 (nM) (n > 3) [5]: 5 nM

B7: Compound 68 (peptide)
peptide: H-DTHFPICAFGPRSKGWVCM-NH2
modifications: disulfide 7-18 (inferred)
EC50 (nM) (n > 3) [8]: > 10000 nM

Results, then the binder that gave them:

EC50 (nM) (n > 3) [6]: 712 nM
EC50 (nM), ferroportin degradation (loss of ferroportin-GFP fluorescence) [7]: 712 nM
B4: Mini-Hepcidin 1-9 (Hy-DTHFPICIF-NH2) (peptide)
peptide: H-DTHFPICIF-NH2

Log dilutions EC50 (nM) (n > 3) [5]: 2.2 nM
B8: Compound 353 (peptide)
peptide: Isovaleryl-DTHFPICIFGPRSKGWVC-NH2
modifications: disulfide 7-18 (inferred); not fully specified (residue 14); also: dimer through DIG linker on εN of Lys14 of each monomer

EC50 (nM), ferroportin degradation (loss of ferroportin-GFP fluorescence) [7]: > 10000 nM
B9: RI-Mini Hepcidin (Hy-DPhe-DIle-DCys-DIle-DPro-DPhe-DHis-DThr-DAsp-NH2) (peptide)
peptide: FICIPFHTD
modifications: all residues are D-amino acids (retro inverse: reversed sequence in all D amino acids); C-terminal amide (-NH2)

Reference: US20250340608A1 (PROTAGONIST THERAPEUTICS, published 2025)
